Numbering of substitutions follows the chain as printed.
T1: HBV 11-12L.1090QQ Linker1923(1/2) meganuclease (synthetic (I-CreI derived))
T1 sequence: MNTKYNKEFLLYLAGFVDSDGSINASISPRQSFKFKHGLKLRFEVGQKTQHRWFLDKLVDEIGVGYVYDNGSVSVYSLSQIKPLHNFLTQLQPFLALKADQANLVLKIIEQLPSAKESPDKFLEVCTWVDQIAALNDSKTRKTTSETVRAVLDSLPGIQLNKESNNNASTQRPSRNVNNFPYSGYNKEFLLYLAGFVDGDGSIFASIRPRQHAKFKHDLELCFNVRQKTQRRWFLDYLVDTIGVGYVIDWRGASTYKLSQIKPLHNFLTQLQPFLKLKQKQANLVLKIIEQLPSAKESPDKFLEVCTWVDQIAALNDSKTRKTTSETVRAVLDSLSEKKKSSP

T2: HBV 11-12L.1090QQ Linker1 meganuclease (synthetic (I-CreI derived, Chlamydomonas reinhardtii))
T2 sequence: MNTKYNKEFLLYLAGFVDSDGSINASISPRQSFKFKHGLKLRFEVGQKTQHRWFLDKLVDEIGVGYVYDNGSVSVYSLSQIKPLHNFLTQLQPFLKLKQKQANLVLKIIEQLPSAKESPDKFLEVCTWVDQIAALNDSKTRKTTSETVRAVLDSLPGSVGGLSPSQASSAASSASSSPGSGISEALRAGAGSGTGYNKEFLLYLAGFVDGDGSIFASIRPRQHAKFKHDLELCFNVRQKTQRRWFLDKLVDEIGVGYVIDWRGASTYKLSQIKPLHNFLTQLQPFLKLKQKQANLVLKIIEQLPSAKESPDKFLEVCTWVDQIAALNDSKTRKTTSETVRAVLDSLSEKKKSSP

T3: HBV 11-12L.1090QE Linker1923(1/2) meganuclease (synthetic (I-CreI derived))
T3 sequence: T1 sequence with Q260E

T4: HBV 11-12L.1090QQ Linker1923(1/2) meganuclease (synthetic (I-CreI derived))
T4 chain: T1 sequence

T5: HBV 11-12L.1090QE Linker1923(1/2) meganuclease (synthetic (I-CreI derived))
T5 chain: T1 sequence with Q260E

B1: HBV 11-12 recognition sequence (dsDNA)
DNA 1: TGCCGATCCATACTGCGGAACT
DNA 2: AGTTCCGCAGTATGGATCGGCA

Legend:
[1] = test system: T1, HBV 11-12L.1090QQ Linker1923(1/2) meganuclease (synthetic (I-CreI derived)); assay: cell_activity; details: off-target, HepG2-sAg, 100 ng mRNA; on-target about 60%
[2] = test system: T2, HBV 11-12L.1090QQ Linker1 meganuclease (synthetic (I-CreI derived, Chlamydomonas reinhardtii)); assay: cell_activity; details: off-target, HepG2-sAg, 100 ng mRNA; on-target about 60%
[3] = test system: T3, HBV 11-12L.1090QE Linker1923(1/2) meganuclease (synthetic (I-CreI derived)); assay: cell_activity; details: off-target, HepG2-sAg, 100 ng mRNA, below LOD; 0.2% in naive PHH at 500 ng
[4] = biological target: T4, HBV 11-12L.1090QQ Linker1923(1/2) …; assay: cell_activity; indel formation in HepG2-sAg, day 2; EC90 4.93 ng; details: tags: SV40 NLS (N- and C-terminal in pRNA8), mRNA-delivered
[5] = biological target: T5, HBV 11-12L.1090QE Linker1923(1/2) …; assay: cell_activity; indel formation in HepG2-sAg, day 2; EC90 23.93 ng; details: tags: SV40 NLS (N- and C-terminal in pRNA8), mRNA-delivered

Molecule | activity [1] [% editing] | activity [2] [% editing] | activity [3] [% editing] | EC50 [4] [ng mRNA] | EC50 [5] [ng mRNA]
top off-target site Chr17:17242769 | 2 | 0.5 | < 0.2 |  | 
B1 |  |  |  | 0.26 | 2.3
